In patent publication US20100203582:

Target: T1, peptide SAVLQMGFRK, Substrate (7)
T1 chain: SAVLQMGFRK

B1: wild-type severe acute respiratory syndrome-associated coronavirus 3C-like protease (SARS-CoV 3CL^pro) (protein)
chain: SGFRKMAFPSGKVEGCMVQVTCGTTTLNGLWLDDTVYCPRHVICTAEDMLNPNYEDLLIRKSNHSFLVQAGNVQLRVIGHSMQNCLLRLKVDTSNPKTPKYKFVRIQPGQTFSVLACYNGSPSGVYQCAMRPNHTIKGSFLNGSCGSVGFNIDYDCVSFCYMHHMELPTGVHAGTDLEGKFYGPFVDRQTAQAAGTDTTITLNVLAWLYAAVINGDRWFLNRFTTTLNDFNLVAMKYNYEPLTQDHVDILGPLSAQTGIAVLDMCAALKELLQNGMNGRTILGSTILEDEFTPFDVVRQCSGVTFQ
  Km: Km is 76.6±3.5 µM
  kcat: kcat is 1.6±0.2 min^-1
  kcat/Km: kcat/Km=0.02 µM^-1min^-1
